These results are taken from publication PMC11995519, “Structural insights into the human NuA4/TIP60 acetyltransferase and chromatin remodeling complex” (Science (New York, N.Y.), 2024).

This assay concerns the target T1, transformation/transcription domain-associated protein (TRRAP) (human (endogenous in K562), UniProt Q9Y4A5 1-3859).
T1 construct: transformation/transcription domain-associated protein (TRRAP), human; also called TRRAP module; source: endogenous, K562 extract; co-purified with tagged EP400 constructs
Kind of assay: cryo-EM structure; TRRAP-EP400Cter purified by the tagged EP400 truncation 2188-3159, glutaraldehyde cross-linked; 3.4 Å. The conditions noted are these: both partners purified.

T1 sequence (Q9Y4A5 whole entry, the tested form may be a part): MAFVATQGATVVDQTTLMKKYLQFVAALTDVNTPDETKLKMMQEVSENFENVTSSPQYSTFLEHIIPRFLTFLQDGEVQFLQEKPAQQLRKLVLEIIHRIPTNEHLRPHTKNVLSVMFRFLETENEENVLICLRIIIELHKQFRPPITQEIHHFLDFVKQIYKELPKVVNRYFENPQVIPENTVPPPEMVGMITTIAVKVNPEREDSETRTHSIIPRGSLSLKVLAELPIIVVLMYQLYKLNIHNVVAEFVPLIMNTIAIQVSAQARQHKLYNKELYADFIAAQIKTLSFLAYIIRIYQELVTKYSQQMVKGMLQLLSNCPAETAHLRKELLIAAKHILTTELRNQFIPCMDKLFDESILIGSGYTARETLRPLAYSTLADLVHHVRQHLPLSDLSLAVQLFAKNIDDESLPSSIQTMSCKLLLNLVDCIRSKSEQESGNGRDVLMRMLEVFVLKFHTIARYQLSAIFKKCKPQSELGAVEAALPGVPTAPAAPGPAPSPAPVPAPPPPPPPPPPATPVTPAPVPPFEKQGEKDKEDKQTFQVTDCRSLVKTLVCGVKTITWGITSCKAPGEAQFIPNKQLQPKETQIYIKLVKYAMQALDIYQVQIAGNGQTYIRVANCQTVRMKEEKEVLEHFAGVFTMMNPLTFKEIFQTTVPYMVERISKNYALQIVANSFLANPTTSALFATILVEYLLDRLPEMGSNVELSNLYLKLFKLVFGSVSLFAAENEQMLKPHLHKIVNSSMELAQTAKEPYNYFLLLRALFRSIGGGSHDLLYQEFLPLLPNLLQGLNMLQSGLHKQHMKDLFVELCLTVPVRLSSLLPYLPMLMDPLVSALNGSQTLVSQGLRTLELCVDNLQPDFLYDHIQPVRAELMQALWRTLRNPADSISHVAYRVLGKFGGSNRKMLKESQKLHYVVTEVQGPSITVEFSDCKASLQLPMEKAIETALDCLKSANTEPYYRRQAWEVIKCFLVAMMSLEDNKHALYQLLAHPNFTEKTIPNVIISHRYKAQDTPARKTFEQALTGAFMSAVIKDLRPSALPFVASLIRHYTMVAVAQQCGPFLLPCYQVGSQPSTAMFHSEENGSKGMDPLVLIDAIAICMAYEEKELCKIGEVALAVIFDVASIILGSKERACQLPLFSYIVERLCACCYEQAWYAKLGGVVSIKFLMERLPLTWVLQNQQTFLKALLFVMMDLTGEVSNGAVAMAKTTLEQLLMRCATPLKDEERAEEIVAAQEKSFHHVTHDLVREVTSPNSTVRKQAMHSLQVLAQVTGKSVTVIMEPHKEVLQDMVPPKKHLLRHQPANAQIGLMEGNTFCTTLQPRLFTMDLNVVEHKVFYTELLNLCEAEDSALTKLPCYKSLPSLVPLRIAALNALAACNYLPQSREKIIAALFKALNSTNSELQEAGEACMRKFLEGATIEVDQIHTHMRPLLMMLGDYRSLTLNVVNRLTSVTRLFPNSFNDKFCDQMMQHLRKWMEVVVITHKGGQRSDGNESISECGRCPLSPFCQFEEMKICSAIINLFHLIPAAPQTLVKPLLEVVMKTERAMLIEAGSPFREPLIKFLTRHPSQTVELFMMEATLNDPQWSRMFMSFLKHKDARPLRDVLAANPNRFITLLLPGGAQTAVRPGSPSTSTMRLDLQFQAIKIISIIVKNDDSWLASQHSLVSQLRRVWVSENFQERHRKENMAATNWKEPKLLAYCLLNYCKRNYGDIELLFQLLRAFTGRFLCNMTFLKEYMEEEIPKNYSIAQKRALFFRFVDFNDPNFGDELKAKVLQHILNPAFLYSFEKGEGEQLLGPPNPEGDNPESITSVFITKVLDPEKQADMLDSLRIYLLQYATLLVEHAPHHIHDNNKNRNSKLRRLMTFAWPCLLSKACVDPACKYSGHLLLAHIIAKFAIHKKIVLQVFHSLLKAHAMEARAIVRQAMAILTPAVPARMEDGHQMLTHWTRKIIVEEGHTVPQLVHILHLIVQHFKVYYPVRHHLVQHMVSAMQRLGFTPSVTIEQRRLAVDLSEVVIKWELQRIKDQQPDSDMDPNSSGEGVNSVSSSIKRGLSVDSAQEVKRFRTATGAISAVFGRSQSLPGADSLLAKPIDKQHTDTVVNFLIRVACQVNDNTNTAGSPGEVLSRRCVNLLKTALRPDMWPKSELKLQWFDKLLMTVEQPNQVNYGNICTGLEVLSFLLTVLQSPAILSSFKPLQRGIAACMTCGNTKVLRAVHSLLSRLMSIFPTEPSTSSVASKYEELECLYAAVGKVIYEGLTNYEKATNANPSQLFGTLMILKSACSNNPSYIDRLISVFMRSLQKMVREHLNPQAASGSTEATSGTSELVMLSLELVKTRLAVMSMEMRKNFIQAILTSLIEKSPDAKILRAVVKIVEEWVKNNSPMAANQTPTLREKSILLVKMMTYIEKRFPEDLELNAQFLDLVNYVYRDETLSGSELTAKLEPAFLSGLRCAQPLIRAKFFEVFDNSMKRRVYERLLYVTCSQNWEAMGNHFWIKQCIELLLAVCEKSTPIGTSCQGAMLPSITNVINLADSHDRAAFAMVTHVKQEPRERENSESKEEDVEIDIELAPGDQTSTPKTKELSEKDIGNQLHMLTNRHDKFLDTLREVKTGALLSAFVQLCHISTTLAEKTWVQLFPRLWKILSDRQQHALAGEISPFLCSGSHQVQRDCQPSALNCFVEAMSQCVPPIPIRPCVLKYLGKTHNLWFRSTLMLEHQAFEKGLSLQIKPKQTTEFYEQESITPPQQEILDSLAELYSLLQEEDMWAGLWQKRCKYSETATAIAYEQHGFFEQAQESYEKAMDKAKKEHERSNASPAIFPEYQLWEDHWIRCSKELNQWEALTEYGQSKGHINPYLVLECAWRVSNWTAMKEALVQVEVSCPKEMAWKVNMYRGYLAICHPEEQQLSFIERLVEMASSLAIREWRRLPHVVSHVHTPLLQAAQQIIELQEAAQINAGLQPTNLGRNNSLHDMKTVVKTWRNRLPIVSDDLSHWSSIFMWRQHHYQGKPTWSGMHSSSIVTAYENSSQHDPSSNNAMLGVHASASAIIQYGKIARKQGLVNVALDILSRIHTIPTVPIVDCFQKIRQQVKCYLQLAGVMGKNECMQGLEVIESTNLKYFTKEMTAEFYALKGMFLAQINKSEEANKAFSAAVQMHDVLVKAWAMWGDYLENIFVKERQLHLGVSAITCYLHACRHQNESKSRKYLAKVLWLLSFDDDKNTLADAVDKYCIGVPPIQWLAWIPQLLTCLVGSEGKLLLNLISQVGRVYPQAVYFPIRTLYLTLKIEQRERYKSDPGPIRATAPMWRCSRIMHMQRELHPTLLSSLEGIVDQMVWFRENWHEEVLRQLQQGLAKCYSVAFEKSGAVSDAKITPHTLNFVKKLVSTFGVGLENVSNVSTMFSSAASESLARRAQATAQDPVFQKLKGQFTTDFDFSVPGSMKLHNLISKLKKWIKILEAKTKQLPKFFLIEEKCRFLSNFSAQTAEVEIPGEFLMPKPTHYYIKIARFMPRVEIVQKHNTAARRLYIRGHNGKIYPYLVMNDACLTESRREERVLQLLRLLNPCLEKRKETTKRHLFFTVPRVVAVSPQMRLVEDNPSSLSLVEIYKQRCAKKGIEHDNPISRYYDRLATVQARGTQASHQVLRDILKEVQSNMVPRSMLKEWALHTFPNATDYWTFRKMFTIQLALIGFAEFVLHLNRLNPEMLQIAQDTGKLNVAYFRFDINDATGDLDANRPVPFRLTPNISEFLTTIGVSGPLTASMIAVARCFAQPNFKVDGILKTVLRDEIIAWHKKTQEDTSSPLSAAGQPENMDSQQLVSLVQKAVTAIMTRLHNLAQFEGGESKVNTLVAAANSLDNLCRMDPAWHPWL

B1: tagged truncation of EP400 containing just the C terminus after the ATPase domain (amino acid 2188 to 3159) (domain or fragment, human, UniProt Q96L91 2188-3159, looked up)
chain: AVMTAVRAWEFWNLKTLQEREARLRLEQEEAELLTYTREDAYSMEYVYEDVDGQTEVMPLWTPPTPPQDDSDIYLDSVMCLMYEATPIPEAKLPPVYVRKERKRHKTDPSAAGRKKKQRHGEAVVPPRSLFDRATPGLLKIRREGKEQKKNILLKQQVPFAKPLPTFAKPTAEPGQDNPEWLISEDWALLQAVKQLLELPLNLTIVSPAHTPNWDLVSDVVNSCSRIYRSSKQCRNRYENVIIPREEGKSKNNRPLRTSQIYAQDENATHTQLYTSHFDLMKMTAGKRSPPIKPLLGMNPFQKNPKHASVLAESGINYDKPLPPIQVASLRAERIAKEKKALADQQKAQQPAVAQPPPPQPQPPPPPQQPPPPLPQPQAAGSQPPAGPPAVQPQPQPQPQTQPQPVQAPAKAQPAITTGGSAAVLAGTIKTSVTGTSMPTGAVSGNVIVNTIAGVPAATFQSINKRLASPVAPGALTTPGGSAPAQVVHTQPPPRAVGSPATATPDLVSMATTQGVRAVTSVTASAVVTTNLTPVQTPARSLVPQVSQATGVQLPGKTITPAHFQLLRQQQQQQQQQQQQQQQQQQQQQQQQQQQQQTTTTSQVQVPQIQGQAQSPAQIKAVGKLTPEHLIKMQKQKLQMPPQPPPPQAQSAPPQPTAQVQVQTSQPPQQQSPQLTTVTAPRPGALLTGTTVANLQVARLTRVPTSQLQAQGQMQTQAPQPAQVALAKPPVVSVPAAVVSSPGVTTLPMNVAGISVAIGQPQKAAGQTVVAQPVHMQQLLKLKQQAVQQQKAIQPQAAQGPAAVQQKITAQQITTPGAQQKVAYAAQPALKTQFLTTPISQAQKLAGAQQVQTQIQVAKLPQVVQQQTPVASIQQVASASQQASPQTVALTQATAAGQQVQMIPAVTATAQVVQQKLIQQQVVTTASAPLQTPGAPNPAQVPASSDSPSQQPKLQMRVPAVRLKTPTKPPCQ
notes: 137 residues (SANT and HD domains) are resolved; also called EP400Cter; C-terminal segment of EP400; source: new cell line expressing the tagged truncation
Take B1: the binding result is “binds”.
